From patent publication US20240261333A1, “NOVEL TARGETS FOR ENHANCING ANTI-TUMOR IMMUNITY” (THE BROAD INSTITUTE, INC., priority 2021, published 2024)

Legend:
[1] = target: ACTR3 (UniProt P61158); experiment: co-IP with anti-FLAG, mass spectrometry; C-FLAG B3GNT2
[2] = target: ATP5F1B (UniProt P06576); experiment: as above
[3] = target: ATXN2L (UniProt Q8WWM7); experiment: as above
[4] = target: CTSD (UniProt P07339); experiment: as above
[5] = target: EEF1A1 (UniProt P68104); experiment: as above
[6] = target: FABP5 (UniProt Q01469); experiment: as above
[7] = target: HBA1 (UniProt P69905); experiment: as above
[8] = target: HNRNPA1 (UniProt P09651); experiment: as above
[9] = target: HNRNPF (UniProt P52597); experiment: as above
[10] = target: LTF (UniProt P02788); experiment: as above
[11] = target: LYZ (UniProt P61626); experiment: as above
[12] = target: PCMT1 (UniProt P22061); experiment: as above
[13] = target: RCC2 (UniProt Q9P258); experiment: as above
[14] = target: RPL10A (UniProt P62906); experiment: as above
[15] = target: RPL31 (UniProt P62899); experiment: as above
[16] = target: RPL35A (UniProt P18077); experiment: as above
[17] = target: RPL36 (UniProt Q9Y3U8); experiment: as above
[18] = target: RPL36A (UniProt P83881); experiment: as above
[19] = target: RPN1 (UniProt P04843); experiment: as above
[20] = target: RPS15A (UniProt P62244); experiment: as above
[21] = target: SLIRP (UniProt Q9GZT3); experiment: as above
[22] = target: SSR1 (UniProt P43307); experiment: as above
[23] = target: TPI1 (UniProt P60174); experiment: as above
[24] = target: UBA52 (UniProt P62987); experiment: as above
[25] = target: YBX3 (UniProt P16989); experiment: as above
[26] = target: YWHAZ (UniProt P63104); experiment: as above
[27] = target: EIF5B (human) (UniProt O60841); experiment: co-IP, anti-FLAG, lysate of cells with C-FLAG B3GNT2; mass spectrometry
[28] = target: HADHB (human) (UniProt P55084); experiment: as above
[29] = target: HSPA8 (human) (UniProt P11142); experiment: as above
[30] = target: KRT4 (human) (UniProt P19013); experiment: as above
[31] = target: PUM1 (human) (UniProt Q14671); experiment: as above
[32] = target: RPL18 (human) (UniProt Q07020); experiment: as above
[33] = target: RPL4 (human) (UniProt P36578); experiment: as above
[34] = target: RPS28 (human) (UniProt P62857); experiment: as above
[35] = target: T1, SERBP1 (human) (UniProt Q8NC51); experiment: as above
T1 sequence (looked up): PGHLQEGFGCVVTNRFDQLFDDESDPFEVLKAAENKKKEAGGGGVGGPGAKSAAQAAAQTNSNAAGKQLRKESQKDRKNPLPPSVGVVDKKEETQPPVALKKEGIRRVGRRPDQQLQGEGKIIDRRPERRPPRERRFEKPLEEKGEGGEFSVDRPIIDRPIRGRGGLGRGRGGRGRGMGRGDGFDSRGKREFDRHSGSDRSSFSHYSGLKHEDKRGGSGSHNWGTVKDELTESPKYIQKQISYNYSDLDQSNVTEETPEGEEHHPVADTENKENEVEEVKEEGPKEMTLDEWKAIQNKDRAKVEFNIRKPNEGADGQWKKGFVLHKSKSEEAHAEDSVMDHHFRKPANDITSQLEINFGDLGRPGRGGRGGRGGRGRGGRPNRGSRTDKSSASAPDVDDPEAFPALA

[36] = target: SPTAN1 (human) (UniProt Q13813); experiment: as above

FABP5, sequence (Q01469 2-135 limits assumed): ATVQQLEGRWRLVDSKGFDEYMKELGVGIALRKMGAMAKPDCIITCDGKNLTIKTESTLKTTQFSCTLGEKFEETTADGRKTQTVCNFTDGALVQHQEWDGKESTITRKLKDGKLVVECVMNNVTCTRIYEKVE
EIF5B (human), sequence (O60841 whole entry): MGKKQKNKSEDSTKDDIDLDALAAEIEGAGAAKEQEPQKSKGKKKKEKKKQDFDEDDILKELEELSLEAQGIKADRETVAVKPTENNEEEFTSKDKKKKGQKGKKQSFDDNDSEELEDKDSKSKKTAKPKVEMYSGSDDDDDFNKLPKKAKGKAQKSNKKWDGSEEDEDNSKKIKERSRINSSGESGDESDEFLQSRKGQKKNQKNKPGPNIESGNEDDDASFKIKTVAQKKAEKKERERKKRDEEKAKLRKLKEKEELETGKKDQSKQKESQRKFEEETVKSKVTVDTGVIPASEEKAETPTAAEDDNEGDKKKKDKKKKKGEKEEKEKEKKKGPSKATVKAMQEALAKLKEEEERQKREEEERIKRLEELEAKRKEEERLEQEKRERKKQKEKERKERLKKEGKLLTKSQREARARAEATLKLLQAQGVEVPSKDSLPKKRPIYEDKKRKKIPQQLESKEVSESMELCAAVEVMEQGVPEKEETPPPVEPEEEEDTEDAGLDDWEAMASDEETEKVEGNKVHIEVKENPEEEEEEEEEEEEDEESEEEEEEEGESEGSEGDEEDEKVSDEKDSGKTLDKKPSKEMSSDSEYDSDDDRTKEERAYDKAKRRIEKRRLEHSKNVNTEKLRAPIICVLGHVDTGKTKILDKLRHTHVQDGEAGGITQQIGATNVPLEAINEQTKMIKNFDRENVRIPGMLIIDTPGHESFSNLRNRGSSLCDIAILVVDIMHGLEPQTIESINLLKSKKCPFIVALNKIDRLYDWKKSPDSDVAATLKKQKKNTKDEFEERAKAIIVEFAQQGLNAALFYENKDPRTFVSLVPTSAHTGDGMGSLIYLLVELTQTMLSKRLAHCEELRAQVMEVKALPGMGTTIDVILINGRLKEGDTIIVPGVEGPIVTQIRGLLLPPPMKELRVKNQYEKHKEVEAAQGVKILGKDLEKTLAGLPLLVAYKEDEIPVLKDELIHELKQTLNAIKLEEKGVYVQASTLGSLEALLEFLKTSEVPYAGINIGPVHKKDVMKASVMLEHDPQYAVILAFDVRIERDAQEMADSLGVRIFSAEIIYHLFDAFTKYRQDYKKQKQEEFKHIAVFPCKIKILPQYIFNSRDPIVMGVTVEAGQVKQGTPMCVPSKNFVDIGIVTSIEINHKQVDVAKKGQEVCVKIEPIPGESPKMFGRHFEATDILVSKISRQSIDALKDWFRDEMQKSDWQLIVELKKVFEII
PCMT1, sequence (P22061 2-227 limits assumed): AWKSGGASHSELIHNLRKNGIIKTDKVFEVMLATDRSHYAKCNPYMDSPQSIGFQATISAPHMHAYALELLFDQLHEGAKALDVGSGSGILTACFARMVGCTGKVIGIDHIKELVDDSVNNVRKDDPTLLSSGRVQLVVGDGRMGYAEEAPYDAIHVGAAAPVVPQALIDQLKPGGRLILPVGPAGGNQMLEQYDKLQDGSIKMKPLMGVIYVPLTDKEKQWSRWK
KRT4 (human), sequence (P19013 whole entry): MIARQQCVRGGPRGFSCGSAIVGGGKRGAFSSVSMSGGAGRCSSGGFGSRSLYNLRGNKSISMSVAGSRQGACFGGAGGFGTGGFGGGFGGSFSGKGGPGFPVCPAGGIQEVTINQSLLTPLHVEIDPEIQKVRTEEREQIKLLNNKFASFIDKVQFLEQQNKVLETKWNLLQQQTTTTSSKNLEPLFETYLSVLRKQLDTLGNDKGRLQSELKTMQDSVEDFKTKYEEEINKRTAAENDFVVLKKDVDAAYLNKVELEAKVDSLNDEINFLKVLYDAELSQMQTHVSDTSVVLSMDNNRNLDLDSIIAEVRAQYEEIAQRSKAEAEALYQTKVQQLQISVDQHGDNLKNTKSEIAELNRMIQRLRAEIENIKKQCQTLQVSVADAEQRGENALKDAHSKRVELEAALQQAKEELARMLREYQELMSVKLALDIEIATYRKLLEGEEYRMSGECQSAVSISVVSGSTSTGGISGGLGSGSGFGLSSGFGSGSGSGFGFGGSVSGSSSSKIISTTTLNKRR
RPN1, sequence (P04843 24-607 limits assumed): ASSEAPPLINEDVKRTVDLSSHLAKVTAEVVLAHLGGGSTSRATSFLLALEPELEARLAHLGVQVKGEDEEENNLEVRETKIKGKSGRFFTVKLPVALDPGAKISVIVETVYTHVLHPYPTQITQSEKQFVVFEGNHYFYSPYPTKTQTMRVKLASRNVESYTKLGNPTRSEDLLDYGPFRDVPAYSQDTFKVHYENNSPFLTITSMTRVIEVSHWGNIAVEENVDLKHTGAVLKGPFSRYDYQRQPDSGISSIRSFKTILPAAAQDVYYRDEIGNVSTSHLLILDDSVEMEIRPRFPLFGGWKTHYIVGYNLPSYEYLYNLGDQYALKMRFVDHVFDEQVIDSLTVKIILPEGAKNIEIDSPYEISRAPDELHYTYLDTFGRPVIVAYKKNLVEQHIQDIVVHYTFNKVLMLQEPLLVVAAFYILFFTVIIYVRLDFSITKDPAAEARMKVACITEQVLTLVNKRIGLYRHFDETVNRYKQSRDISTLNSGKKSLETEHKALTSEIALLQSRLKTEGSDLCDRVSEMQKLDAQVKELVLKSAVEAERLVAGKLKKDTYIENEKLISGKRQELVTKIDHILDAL
LYZ, sequence (P61626 19-148 limits assumed): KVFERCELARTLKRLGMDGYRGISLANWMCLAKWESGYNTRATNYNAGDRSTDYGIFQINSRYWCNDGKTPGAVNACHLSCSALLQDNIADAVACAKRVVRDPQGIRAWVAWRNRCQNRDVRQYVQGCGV
CTSD, sequence (P07339 65-412 limits assumed): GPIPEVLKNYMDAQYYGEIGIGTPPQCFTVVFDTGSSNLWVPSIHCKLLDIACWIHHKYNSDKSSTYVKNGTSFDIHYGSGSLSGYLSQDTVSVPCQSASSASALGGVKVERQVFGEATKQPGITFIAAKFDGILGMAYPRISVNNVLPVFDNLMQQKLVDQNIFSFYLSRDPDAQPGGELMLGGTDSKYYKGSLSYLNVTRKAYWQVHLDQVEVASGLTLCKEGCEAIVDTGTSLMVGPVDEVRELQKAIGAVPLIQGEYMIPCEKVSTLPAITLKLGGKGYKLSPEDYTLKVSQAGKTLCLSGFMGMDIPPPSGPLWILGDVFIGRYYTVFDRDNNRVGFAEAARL
YBX3, sequence (P16989 2-372 limits assumed): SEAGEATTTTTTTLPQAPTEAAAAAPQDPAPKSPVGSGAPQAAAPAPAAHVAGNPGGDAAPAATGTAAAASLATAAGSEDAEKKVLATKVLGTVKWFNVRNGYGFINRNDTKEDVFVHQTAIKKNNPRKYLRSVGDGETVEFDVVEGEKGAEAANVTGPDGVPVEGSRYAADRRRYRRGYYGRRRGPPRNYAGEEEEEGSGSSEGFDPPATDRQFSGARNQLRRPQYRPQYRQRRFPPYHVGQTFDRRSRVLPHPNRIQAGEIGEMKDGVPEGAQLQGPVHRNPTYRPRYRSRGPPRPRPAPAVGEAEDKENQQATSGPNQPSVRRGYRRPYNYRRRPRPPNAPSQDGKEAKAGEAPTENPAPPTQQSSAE
SSR1, sequence (P43307 19-286 limits assumed): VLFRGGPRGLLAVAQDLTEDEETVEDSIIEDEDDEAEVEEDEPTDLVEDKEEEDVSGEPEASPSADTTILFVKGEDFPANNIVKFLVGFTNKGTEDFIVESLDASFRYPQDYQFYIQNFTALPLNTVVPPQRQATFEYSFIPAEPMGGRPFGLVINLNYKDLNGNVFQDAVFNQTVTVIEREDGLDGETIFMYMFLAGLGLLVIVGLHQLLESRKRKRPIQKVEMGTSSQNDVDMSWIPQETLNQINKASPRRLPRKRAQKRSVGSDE
LTF, sequence (P02788 20-710 limits assumed): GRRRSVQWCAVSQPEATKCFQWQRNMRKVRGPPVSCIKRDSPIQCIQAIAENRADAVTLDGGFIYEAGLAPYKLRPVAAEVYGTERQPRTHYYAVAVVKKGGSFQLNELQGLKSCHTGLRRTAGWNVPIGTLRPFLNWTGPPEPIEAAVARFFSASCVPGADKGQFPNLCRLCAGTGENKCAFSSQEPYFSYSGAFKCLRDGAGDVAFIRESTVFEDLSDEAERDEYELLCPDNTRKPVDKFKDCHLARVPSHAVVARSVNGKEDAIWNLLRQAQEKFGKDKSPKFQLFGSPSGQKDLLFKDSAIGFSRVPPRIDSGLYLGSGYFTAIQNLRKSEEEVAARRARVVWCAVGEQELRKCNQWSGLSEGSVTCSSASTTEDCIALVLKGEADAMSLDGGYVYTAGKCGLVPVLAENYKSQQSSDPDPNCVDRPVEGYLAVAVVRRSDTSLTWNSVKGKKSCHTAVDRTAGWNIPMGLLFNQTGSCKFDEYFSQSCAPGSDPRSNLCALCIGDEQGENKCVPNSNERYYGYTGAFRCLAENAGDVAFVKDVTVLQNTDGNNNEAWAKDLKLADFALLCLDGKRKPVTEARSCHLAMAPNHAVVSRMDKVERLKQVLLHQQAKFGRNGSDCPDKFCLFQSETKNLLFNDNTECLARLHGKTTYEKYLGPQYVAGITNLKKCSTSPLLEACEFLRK
YWHAZ, sequence (P63104 whole entry): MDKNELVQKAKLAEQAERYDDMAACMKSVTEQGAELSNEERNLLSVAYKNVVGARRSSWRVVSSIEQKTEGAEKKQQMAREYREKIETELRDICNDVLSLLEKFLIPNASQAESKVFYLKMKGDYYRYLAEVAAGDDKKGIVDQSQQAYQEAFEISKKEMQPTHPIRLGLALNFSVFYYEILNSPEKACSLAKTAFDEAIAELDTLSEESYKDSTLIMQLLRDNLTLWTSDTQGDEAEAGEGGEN
HBA1, sequence (P69905 2-142 limits assumed): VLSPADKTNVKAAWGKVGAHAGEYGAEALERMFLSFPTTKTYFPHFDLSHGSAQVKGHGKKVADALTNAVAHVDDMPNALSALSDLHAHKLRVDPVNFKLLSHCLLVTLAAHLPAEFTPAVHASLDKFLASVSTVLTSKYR

Substance: C-terminal FLAG tagged B3GNT2 (from UniProt Q9NY97 1-397) (enzyme)
- co-IP mass spectrometry count [1]: 7
- co-IP mass spectrometry count [2]: 4
- co-IP mass spectrometry count [3]: 5
- co-IP mass spectrometry count [4]: 4
- co-IP mass spectrometry count [5]: 11
- co-IP mass spectrometry count [6]: 8
- co-IP mass spectrometry count [7]: 4
- co-IP mass spectrometry count [8]: 9
- co-IP mass spectrometry count [9]: 7
- co-IP mass spectrometry count [10]: 7
- co-IP mass spectrometry count [11]: 6
- co-IP mass spectrometry count [12]: 2
- co-IP mass spectrometry count [13]: 6
- co-IP mass spectrometry count [14]: 16
- co-IP mass spectrometry count [15]: 6
- co-IP mass spectrometry count [16]: 6
- co-IP mass spectrometry count [17]: 6
- co-IP mass spectrometry count [18]: 11
- co-IP mass spectrometry count [19]: 7
- co-IP mass spectrometry count [20]: 6
- co-IP mass spectrometry count [21]: 6
- co-IP mass spectrometry count [22]: 4
- co-IP mass spectrometry count [23]: 2
- co-IP mass spectrometry count [24]: 20
- co-IP mass spectrometry count [25]: 7
- co-IP mass spectrometry count [26]: 4
- co-IP mass spectrometry count [27]: 3
- co-IP mass spectrometry count [28]: 3
- co-IP mass spectrometry count [29]: 49
- co-IP mass spectrometry count [30]: 37
- co-IP mass spectrometry count [31]: 3
- co-IP mass spectrometry count [32]: 24
- co-IP mass spectrometry count [33]: 36
- co-IP mass spectrometry count [34]: 3
- co-IP mass spectrometry count [35]: 10
- co-IP mass spectrometry count [36]: 3
